Key:
Details in all cases: protein: recombinant; tags: U-[2H,15N] or ILV methyl labeled; no tag stated; chain copies: 2
p50 RHR homodimer [1] = molecular target: T1, p50 RHR homodimer (mouse (murine), UniProt P25799 39-363); test: NMR (13C methyl HMQC); 1:1; heterogeneous bound conformations; NMR: 20 mM Tris pH 6.8, 150 mM NaCl, 2 mM DTT, 300 K; native gel: 20 mM Tris pH 8.0, 10% glycerol, room temperature, 20 min
p50 RHR homodimer [2] = molecular target: T1, p50 RHR homodimer; test: EMSA (native gel); 20 uM, 1:1; single band; NMR: 20 mM Tris pH 6.8, 150 mM NaCl, 2 mM DTT, 300 K; native gel: 20 mM Tris pH 8.0, 10% glycerol, room temperature, 20 min
p50 RHR homodimer [3] = molecular target: T1, p50 RHR homodimer; test: NMR (13C methyl HMQC, CPMG); 1:1; single bound conformation; NMR: 20 mM Tris pH 6.8, 150 mM NaCl, 2 mM DTT, 300 K; native gel: 20 mM Tris pH 8.0, 10% glycerol, room temperature, 20 min
p50 RHR homodimer [4] = molecular target: T1, p50 RHR homodimer; test: NMR (13C methyl HMQC); 1:1; split peaks, at least two bound conformers; NMR: 20 mM Tris pH 6.8, 150 mM NaCl, 2 mM DTT, 300 K; native gel: 20 mM Tris pH 8.0, 10% glycerol, room temperature, 20 min
p50 RHR homodimer [5] = molecular target: T1, p50 RHR homodimer; test: NMR (13C methyl HMQC); 1:1; two conformations; NMR: 20 mM Tris pH 6.8, 150 mM NaCl, 2 mM DTT, 300 K; native gel: 20 mM Tris pH 8.0, 10% glycerol, room temperature, 20 min
p50 RHR homodimer [6] = molecular target: T1, p50 RHR homodimer; test: NMR (13C methyl HMQC); 1:1; single bound conformation, shifts differ from MHC H2; NMR: 20 mM Tris pH 6.8, 150 mM NaCl, 2 mM DTT, 300 K; native gel: 20 mM Tris pH 8.0, 10% glycerol, room temperature, 20 min

T1 sequence (P25799 39-363): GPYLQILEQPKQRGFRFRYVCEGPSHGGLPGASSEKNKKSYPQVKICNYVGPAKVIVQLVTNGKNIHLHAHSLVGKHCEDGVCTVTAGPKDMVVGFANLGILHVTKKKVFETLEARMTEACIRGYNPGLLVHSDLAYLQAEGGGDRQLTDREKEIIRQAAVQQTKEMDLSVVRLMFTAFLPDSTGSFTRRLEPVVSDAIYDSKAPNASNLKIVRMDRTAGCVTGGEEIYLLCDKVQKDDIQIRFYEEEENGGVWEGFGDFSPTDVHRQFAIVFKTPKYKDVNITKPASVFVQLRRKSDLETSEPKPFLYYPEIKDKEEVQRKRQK

B1: H2-κB (dsDNA)
DNA 1: GCTGGGAATCCCCAGC
DNA 2: GCTGGGGATTCCCAGC
B1: binds (p50 RHR homodimer [1]).

B2: MHC H2 M2 (dsDNA)
DNA 1: GCTGGGGATTTCCCAGC
DNA 2: GCTGGGAAATCCCCAGC
B2: binds (p50 RHR homodimer [2]).

B3: IFN-κB (dsDNA)
DNA 1: GCTGGGAAATTCCAGC
DNA 2: GCTGGAATTTCCCAGC
B3: binds (p50 RHR homodimer [1]).

B4: MHC H2 (dsDNA)
DNA 1: GCTGGGGATTCCCCAGC
DNA 2: GCTGGGGAATCCCCAGC
B4: binds (p50 RHR homodimer [3]).

B5: Ig-κB (dsDNA)
DNA 1: GCTGGGACTTTCCAGC
DNA 2: GCTGGAAAGTCCCAGC
B5: binds (p50 RHR homodimer [1]).

B6: κB proto (dsDNA)
DNA 1: GCTGGGAATTCCCAGC
DNA 2: GCTGGGAATTCCCAGC
B6: binds (p50 RHR homodimer [4]).

B7: 4xG-10 (4G-10) (dsDNA)
DNA 1: GCTGGGGATCCCCAGC
DNA 2: GCTGGGGATCCCCAGC
B7: binds (p50 RHR homodimer [5]).

B8: MHC H2 M1 (dsDNA)
DNA 1: GCTGGGAATTTCCCAGC
DNA 2: GCTGGGAAATTCCCAGC
B8: binds (p50 RHR homodimer [6]).

From paper PMC9262625, “Structural and dynamic studies of DNA recognition by NF-κB p50 RHR homodimer using methyl NMR spectroscopy”
